Results reported in the Immune Epitope Database (IEDB).

Tests used:
HLA-B*27:05 = assay: IEDB peptide-MHC binding, cellular MHC/competitive/radioactivity; ≥ and ≤ were set here for values at or beyond the usual limits of such assays; conditions: source organism: Hepacivirus hominis
HLA-A*80:01 = assay: IEDB peptide-MHC binding, purified MHC/direct/fluorescence; filed as Kd, often an IC50 or EC50 that approximates it; ≥ and ≤ were set here for values at or beyond the usual limits of such assays
HLA-A*01:01 [1] = assay: IEDB peptide-MHC binding, purified MHC/competitive/fluorescence; filed as Kd, often an IC50 or EC50 that approximates it; ≥ and ≤ were set here for values at or beyond the usual limits of such assays; conditions: source organism: Rattus norvegicus
HLA-A*29:02 = assay: as above; conditions: source organism: Rattus norvegicus
HLA-A*02:01 = assay: IEDB peptide-MHC binding, purified MHC/competitive/radioactivity; ≥ and ≤ were set here for values at or beyond the usual limits of such assays; conditions: source organism: Trypanosoma cruzi
HLA-A*02:02 = assay: IEDB peptide-MHC binding, purified MHC/competitive/radioactivity; filed as Kd, often an IC50 or EC50 that approximates it; ≥ and ≤ were set here for values at or beyond the usual limits of such assays; conditions: source organism: Trypanosoma cruzi
HLA-A*02:03 = assay: as above; conditions: source organism: Trypanosoma cruzi
HLA-A*02:06 = assay: as above; conditions: source organism: Trypanosoma cruzi
HLA-A*68:02 = assay: as above; conditions: source organism: Trypanosoma cruzi
HLA-C*15:02 = assay: IEDB peptide-MHC binding, purified MHC/direct/fluorescence; filed as Kd, often an IC50 or EC50 that approximates it; ≥ and ≤ were set here for values at or beyond the usual limits of such assays; conditions: source organism: Yersinia pestis Nepal516
HLA-A*03:19 = assay: IEDB peptide-MHC binding, purified MHC/competitive/fluorescence; filed as Kd, often an IC50 or EC50 that approximates it; ≥ and ≤ were set here for values at or beyond the usual limits of such assays; conditions: source organism: Yersinia pestis Nepal516
HLA-A*24:02 = assay: as above
HLA-A*32:07 = assay: as above; conditions: source organism: Yersinia pestis Nepal516
HLA-A*32:15 = assay: as above; conditions: source organism: Yersinia pestis Nepal516
HLA-A*68:23 = assay: as above; conditions: source organism: Yersinia pestis Nepal516
HLA-B*15:42 = assay: as above
HLA-B*45:06 = assay: as above
HLA-C*04:01 [2] = assay: as above; conditions: source organism: Yersinia pestis Nepal516
HLA-C*06:02 = assay: as above; conditions: source organism: Yersinia pestis Nepal516
HLA-C*14:02 = assay: as above; conditions: source organism: Yersinia pestis Nepal516
HLA-C*07:02 = assay: IEDB peptide-MHC binding, purified MHC/direct/fluorescence; filed as Kd, often an IC50 or EC50 that approximates it; ≥ and ≤ were set here for values at or beyond the usual limits of such assays
HLA-B*07:02 = assay: IEDB peptide-MHC binding, purified MHC/competitive/fluorescence; filed as Kd, often an IC50 or EC50 that approximates it; ≥ and ≤ were set here for values at or beyond the usual limits of such assays; conditions: source organism: Yersinia pestis Nepal516
HLA-B*15:01 = assay: as above; conditions: source organism: Yersinia pestis Nepal516
HLA-B*15:02 = assay: as above; conditions: source organism: Yersinia pestis Nepal516
HLA-B*35:01 = assay: as above; conditions: source organism: Yersinia pestis Nepal516
HLA-B*46:01 = assay: as above; conditions: source organism: Yersinia pestis Nepal516
HLA-B*08:01 = assay: as above; conditions: source organism: Yersinia pestis Nepal516
HLA-B*51:01 = assay: as above; conditions: source organism: Yersinia pestis Nepal516
HLA-B*48:01 = assay: as above; conditions: source organism: Escherichia coli B171
HLA-B*27:20 = assay: as above
HLA-B*83:01 = assay: as above
HLA-B*73:01 = assay: as above; conditions: source organism: Salmonella enterica subsp. enterica serovar Typhimurium str. LT2
HLA-A*01:01 [3] = assay: IEDB peptide-MHC binding, purified MHC/direct/fluorescence; filed as Kd, often an IC50 or EC50 that approximates it; ≥ and ≤ were set here for values at or beyond the usual limits of such assays; conditions: source organism: Mammarenavirus lassaense
HLA-C*03:03 = assay: as above; conditions: source organism: Yersinia pestis Nepal516
HLA-C*12:03 = assay: as above; conditions: source organism: Yersinia pestis Nepal516
HLA-B*39:01 = assay: IEDB peptide-MHC binding, purified MHC/competitive/fluorescence; filed as Kd, often an IC50 or EC50 that approximates it; ≥ and ≤ were set here for values at or beyond the usual limits of such assays; conditions: source organism: Yersinia pestis Nepal516
HLA-C*04:01 [4] = assay: IEDB peptide-MHC binding, purified MHC/direct/fluorescence; filed as Kd, often an IC50 or EC50 that approximates it; ≥ and ≤ were set here for values at or beyond the usual limits of such assays; conditions: source organism: Entamoeba dispar SAW760
[5] = source organism: Yersinia pestis Nepal516
[6] = source organism: Human herpesvirus 4 strain B95-8
[7] = source organism: Entamoeba dispar SAW760

ARMILMTHF was tested, and the IC50 (HLA-B*27:05) was 1.1 nM.
In the case of FFGETSHNY, the Kd (HLA-A*80:01; source organism: Mus musculus) is reported as ≥ 20000 nM, the Kd (HLA-A*01:01 [1]) is reported as ≥ 20000 nM and the Kd (HLA-A*29:02) is reported as ≤ 0.1 nM.
FLSHNFTLV was tested, and the IC50 (HLA-A*02:01) was 0.61 nM, the Kd (HLA-A*02:02) was 0.047 nM and the Kd (HLA-A*02:03) was 0.0232 nM. For the same sequence, the Kd (HLA-A*02:06) was 0.445 nM and the Kd (HLA-A*68:02) was 27.1 nM.
With FYFNWNTPI the Kd (HLA-C*15:02) was 1060 nM, the Kd (HLA-A*03:19) was 1420 nM and the Kd (HLA-A*24:02; [5]) was ≤ 0.1 nM. The Kd (HLA-A*32:07) was 0.2 nM, the Kd (HLA-A*32:15) was 7.2 nM and the Kd (HLA-A*68:23) was 23.5 nM. The Kd (HLA-B*15:42; [5]) was ≥ 5000 nM, the Kd (HLA-B*45:06; [5]) was ≥ 5000 nM and the Kd (HLA-C*04:01 [2]) was 300 nM. For the same sequence, the Kd (HLA-C*06:02) was 33.9 nM and the Kd (HLA-C*14:02) was ≤ 0.1 nM.
HLIQNPNPF showed a Kd (HLA-C*07:02; [5]) of 626 nM, a Kd (HLA-B*07:02) of 6500 nM and a Kd (HLA-B*15:01) of 30.8 nM. It also gave a Kd (HLA-B*15:02) of 17.3 nM, a Kd (HLA-B*35:01) of 27.3 nM and a Kd (HLA-B*46:01) of 8050 nM.
LPFLKSLAI was tested, and the Kd (HLA-B*07:02) was 12.6 nM, the Kd (HLA-B*08:01) was 105 nM and the Kd (HLA-B*15:01) was ≥ 20000 nM. The Kd (HLA-B*35:01) was 46.1 nM and the Kd (HLA-B*51:01) was 841 nM.
RQNLSSSEL gave a Kd (HLA-B*48:01) of 192 nM.
In the case of RRAALSGHL, the Kd (HLA-B*15:42; [6]) is reported as ≥ 5000 nM, the Kd (HLA-B*27:20; [6]) is reported as 0.2 nM and the Kd (HLA-B*45:06; [6]) is reported as ≥ 5000 nM. The Kd (HLA-B*83:01; [6]) was ≥ 5000 nM.
WRLYSPPPV was tested, and the Kd (HLA-B*73:01) was 118 nM.
For YENAVWDQY, the Kd (HLA-A*01:01 [3]) was 537 nM and the Kd (HLA-A*80:01; source organism: Mammarenavirus lassaense) was 463 nM.
Work on YRYCHQLAL yielded a Kd (HLA-C*03:03) of 164 nM, a Kd (HLA-C*07:02; [5]) of 39 nM and a Kd (HLA-C*12:03) of 206 nM. The Kd (HLA-C*15:02) was ≥ 20000 nM, the Kd (HLA-B*15:42; [5]) was ≥ 5000 nM and the Kd (HLA-B*27:20; [5]) was 0.2 nM. The Kd (HLA-B*39:01) was 1.2 nM, the Kd (HLA-B*45:06; [5]) was ≥ 5000 nM and the Kd (HLA-B*83:01; [5]) was ≥ 5000 nM. It also gave a Kd (HLA-C*06:02) of 1.8 nM.
In the case of YYSNKVFPI, the Kd (HLA-C*04:01 [4]) is reported as ≥ 20000 nM, the Kd (HLA-C*07:02; [7]) is reported as 245 nM and the Kd (HLA-A*24:02; [7]) is reported as ≤ 0.1 nM.
